{
  "source": "patent US20150335719A1",
  "about": "“Intravitreal Injection of a Chimeric Phage Endolysin Ply187; Protection from Staphylococcus aureus Endophthalmitis” (priority 2014, published 2015)",
  "key": {"[1]": {"tested_on": "S. aureus RN6390 endophthalmitis", "test": "Mouse S. aureus endophthalmitis: histology (H&E) and TUNEL staining of retina", "type": "in vivo, C57BL/6 mice", "description": "FIGS. 3A-3E show the effects of intravitreal injection of chimeric Ply187AN-KSH3b on the severity of S. aureus endophthalmitis. The eyes (n=10) of C57BL/6 mice were infected with S. aureus strain RN6390 and following either 6 h or 12 h post-infection, Ply187AN-KSH3b or EB (EB C) was administered by intravitreal injection. FIG. 3A depicts individual eyes assigned clinical scores (range 0 to 4; black dots represent an eye) and presented as mean clinical scores (bar with SEM). […] FIG. 3E depicts the total number of dead cells in the retinal sections that were counted and are presented as mean±SD of the TUNEL positive cells. A student's t test (**, p<0.005) was used for the statistical analysis and comparisons were made between the S. aureus (SA) control, SA+EBC, and SA+Ply187AN-KSH3b-treated group.\nThe embedding, sectioning, and Hematoxylin and Eosin (H & E) staining was performed by Excalibur Pathology Inc. (Oklahoma City, Okla.). For immunostaining, the eyes were fixed in Tissue-Tek® O.C.T. (Sakura, Torrance, Calif.) and five-micrometer-thick sagittal sections were collected from each eye and mounted onto microscope slides. TUNEL staining was performed on retinal cryo-sections using ApopTag® Fluorescein In situ Apoptosis Detection Kit as per manufacturer's instruction (Millipore, Billerica, Mass.)."}, "retinal cells": {"tested_on": "retinal cells", "test": "Cytotoxicity analysis in vivo (retinal cell death)", "settings": "data not shown"}, "[2]": {"tested_on": "inflammatory cytokines/chemokines in S. aureus-infected eyes", "test": "Mouse S. aureus endophthalmitis: inflammatory cytokines/chemokines by ELISA", "type": "in vivo, C57BL/6 mice", "description": "Following treatment with chimeric Ply187AN-KSH3b or EB (EB C), the eyes (n=4 per time point) were enucleated and 10 μg protein lysate was used for the detection of indicated inflammatory cytokines/chemokines by ELISA. *p<0.05, **p<0.005 (student t-test, SA or EB vs. Ply187AN-KSH3b-treated)\nTo measure the inflammatory cytokines, retinal extracts were processed by homogenization in 250 μl of PBS, followed by centrifugation at 12,000×g for 10 min. PBS-injected mice were used as normal controls (PBS C) and EB-treated mice were used as vehicle controls (EB C). The protein concentration of the retinal lysate was determined by the Micro BCA™ protein assay kit (Thermoscientific, Rockford, Ill.). Equal amounts of protein were used to perform the ELISA, per the manufacturer's instructions (BD biosciences, San Diego, Calif. (IL-6, IL1β & TNFα) and R & D systems, Minneapolis, Minn. (MIP2 & KC)."}, "[3]": {"tested_on": "retinal function in S. aureus-infected eyes", "settings": "treatment 6 h post infection, ERG 24 h post treatment", "experimental": "The percentage amplitude of the a- and b-waves retained in S. aureus (SA)-infected, treated and untreated mice were compared to normal uninfected mice and presented as mean±SD (FIG. 7D).\nScotopic ERG was used to determine retinal function following S. aureus infection and chimeric Ply187AN-KSH3b treatment (6 h post infection). The mice (control, infected and infected+treated) were anesthetized 24 h post Ply187AN-KSH3b treatment, maintained at 37° C. using a heat pad, and the pupils were dilated using 1% tropicamide ophthalmic solution. ERGs were recorded following bilateral mydriasis and at least 4 h of dark adaptation. Silver embedded thread eye electrodes (Ocuscience™ LLC, Kansas City, Mo.) were used to record the ERG. Reference needle electrodes (stainless steel subdermal needle electrodes) were placed in anterior scalp and a ground needle electrode was placed in the tail. ERG responses were acquired using an ERG system (Ocuscience™ LLC, Kansas City, Mo.) and analyzed using ERGVIEW 4.380V. Ganzfeld light stimulus was used to present ten 10 ms flashes, with light intensities, increasing from 0.0001 to 100 cd-s/m^2. The ERG a-wave was measured as amplitude between the ERG baseline and the first negative peak, and the ERG b-wave was measured as amplitude between the first negative peak and the first positive peak."}, "S. aureus strain RN6390": {"tested_on": "S. aureus strain RN6390", "test": "Inoculum effect study in vitro", "type": "cell-based, Staphylococcus aureus", "settings": "dilutions 1:10,000 to 1:10, 1 h at MIC", "from_the_text": "FIGS. 4 A, B and C depict the effect of chimeric Ply187AN-KSH3b on bacterial growth in vivo and in the vitreous humor (VH) in vitro and with increasing inoculums in vitro respectively. […] Twenty-four hours after the treatment, the eyes were enucleated, homogenized and the bacterial burden was estimated via serial dilution plating. FIG. 4B depicts a test showing the effect of the vitreous humor on Ply187AN-KSH3b antimicrobial activity where Ply187AN-KSH3b was mixed with calf vitreous humor and inoculated with 10^5 CFU of S. aureus. The survival of the bacteria was enumerated by CFU count at 2, 4 and 6 h of incubation. Statistical analysis was performed using unpaired student's t test (*, p<0.05; **, p<0.005; ***, p<0.0005). […] An increasing number of dilutions (1:10,000 to 1:10) of logarithmic phase of S. aureus (RN6390 strain) were treated with Ply187AN-KSH3b for 1 h followed by CFU enumeration on TSA plates. Statistical analysis was performed using unpaired student's t test (*, p<0.05; **, p<0.005; ***, p<0.0005).\nTo determine the effect of Vitreous Humor (VH) on antimicrobial activity of chimeric Ply187AN-KSH3b in vitro, bacteria (10^5 CFU) were incubated with chimeric Ply187AN-KSH3b in the presence of calf VH. Following incubation at 37° C. for the desired time, bacterial growth in VH was enumerated by serial dilution plating. […]"}, "[4]": {"tested_on": "neutrophil (PMN) infiltration in retina/vitreous", "test": "Mouse S. aureus endophthalmitis: PMN infiltration by flow cytometry (CD45/Ly6G)", "type": "in vivo, C57BL/6 mice", "settings": "vs vehicle-treated/control eyes, 24 h post treatment", "description": "FIG. 6 depicts infiltration of polymorphonuclear cells (PMNs) in the Ply187AN-KSH3b-treated mouse retina/vitreous cavity. Infected eyes were given intravitreal injections of either EB or chimeric Ply187AN-KSH3b for either 6 or 12 h post infection. Twenty four hour post Ply187AN-KSH3b treatment, the eyes (n=6) were enucleated and the retina/vitreous humor from two eyes were pooled to make single-cell suspensions. The cells were stained with anti-CD45 and anti-Ly6G mAbs. Post-acquisition, the cells were size-gated to differentiate them from debris. The percentage of dually positive PMNs was determined using a CD45-versus-Ly6G dot plot (upper-right quadrant). The data are summarized in a bar graph representative of duplicate experiments. *p<0.05 (student t-test)\nFollowing euthanasia, the retinas were isolated from the eyes as described by Skeie et al. (2011. J. Vis. Exp. 50:2795) and were digested in Accumax (Millipore, Billerica, Mass.) for 10 min at 37° C. Retinas from two eyes were pooled together to obtain a sufficient number of cells. Following digestion, the retinal tissue was passed through a 23-gauge needle & syringe and filtered through a 40 μm cell strainer (BD Falcon, San Jose, Calif.). […] After subsequent washing steps, the cells were acquired on an Accuri C6 flow cytometer (Accuri, Ann Arbor, Mich.), and the data were analyzed using Accuri C6 software (Accuri, Ann Arbor, Mich.)."}, "[5]": {"settings": "6 h and 12 h treatment, vs vehicle-treated and S. aureus control eyes"}},
  "note": "Where “and” joins values, the source holds several entries; their conditions need not be identical. Equal entries are not always repeated.",
  "data": [
    {"molecule": "Ply187AN-KSH3b: staphylococcal peptidoglycan hydrolase fusion protein: endopeptidase domain of prophage endolysin Ply187 plus SH3b cell wall-binding domain of phage K endolysin LysK (SEQ ID NO:1) (protein, Chemically Synthesized Fusion Protein) MALPKTGKPTAKQVVDWAINLIGSGVDVDGYYGRQCWDLPNYIFNRYWNFKTPGNARDMAWYRYPEGFKVFRNTSDFVPKPGDIAVWTGGNYNWNTWGHTGIVVGPSTKSYFYSVDQNWNNSNSYVGSPAAKIKHSYFGVTHFVRPAYKAEPKPTPPLESTPATRPVTGSWKKNQYGTWYKPENATFVNGNQPIVTRIGSPFLNAPVGGNLPAGATIVYDEVCIQAGHIWIGYNAYNGNRVYCPVRTCQGVPPNQIPGVAWGVFKVEHHHHHH", "values": [
      {"measurement": "histological analysis (H&E) of retina", "setting": "[1]; 1 μg/eye intravitreal", "result": "preserved the integrity of the retina"},
      {"measurement": "TUNEL+ cells (retinal cell death), average", "setting": "[1]; retinal sections", "result": 17.66, "unit": "TUNEL^+ cells/eye"},
      {"measurement": "retinal cell death in vivo", "setting": "retinal cells", "result": "does not cause retinal cell death"},
      {"measurement": "level of IL-1β", "setting": "[2]; [5]", "result": "dramatically reduced levels"},
      {"measurement": "level of IL-6", "setting": "[2]; [5]", "result": "dramatically reduced levels"},
      {"measurement": "level of KC (CXCL1)", "setting": "[2]; [5]", "result": "dramatically reduced levels"},
      {"measurement": "level of MIP2 (CXCL2)", "setting": "[2]; [5]", "result": "dramatically reduced levels"},
      {"measurement": "level of TNFα", "setting": "[2]; [5]", "result": "dramatically reduced levels"},
      {"measurement": "MIP-2 reduction, 6 h compared with 12 h treatment", "setting": "[2]; 6 h vs. 12 h treatment", "result": "greater reduction after 6 h vs. 12 h treatment"},
      {"measurement": "ERG a- and b-wave amplitudes", "setting": "[3]", "result": "no significant decline in a- or b-wave amplitudes"},
      {"measurement": "a- and b-wave amplitudes retained", "setting": "[3]; vs uninfected", "result": "90-95%"},
      {"measurement": "activity with increasing bacterial numbers", "setting": "S. aureus strain RN6390", "result": "no reduction in Ply187AN-KSH3b activity"},
      {"measurement": "reduction in neutrophil (PMN) infiltration", "setting": "[4]", "result": "40-50% and ~50%"}
    ]}
  ]
}
